Experimental data from patent EP2287285A2 (UAB RESEARCH FOUNDATION, dated 2011).

T1: soluble TNFRI (soluble form of human TNFR1) (human, UniProt P19438 41-201, limits assumed)
T1 construct: Provided by Amgen; an Fc part is therefore uncertain and not written; also called TNF receptor I
T1 sequence (looked up): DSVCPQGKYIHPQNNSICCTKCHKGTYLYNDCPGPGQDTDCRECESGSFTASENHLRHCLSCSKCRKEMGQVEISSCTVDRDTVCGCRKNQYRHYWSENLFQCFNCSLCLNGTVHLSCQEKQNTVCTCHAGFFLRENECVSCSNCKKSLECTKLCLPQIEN

T2: TRAIL-R3 (DcR-1)/hIgG1 fusion protein (human, UniProt O14798 26-236, limits assumed)
T2 sequence (looked up): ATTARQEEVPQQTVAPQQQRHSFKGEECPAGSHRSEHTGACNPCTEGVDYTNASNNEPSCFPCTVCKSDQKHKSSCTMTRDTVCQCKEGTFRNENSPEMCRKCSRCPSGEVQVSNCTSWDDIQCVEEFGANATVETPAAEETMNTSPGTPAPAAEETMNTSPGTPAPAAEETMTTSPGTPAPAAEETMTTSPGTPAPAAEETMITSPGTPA

T3: TRAIL-R4 (DcR-2)/hIgG1 fusion protein (human, UniProt Q9UBN6 56-211, limits assumed)
T3 sequence (looked up): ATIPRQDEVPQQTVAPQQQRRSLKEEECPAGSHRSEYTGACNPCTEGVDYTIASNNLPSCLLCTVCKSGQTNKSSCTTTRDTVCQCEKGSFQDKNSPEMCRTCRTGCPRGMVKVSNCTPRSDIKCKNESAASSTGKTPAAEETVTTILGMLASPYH

T4: CD95/hIgG1 (soluble form of human Fas) (human, UniProt P25445 26-173, limits assumed)
T4 construct: Provided by Amgen; also called Fas (CD95)
T4 sequence (looked up): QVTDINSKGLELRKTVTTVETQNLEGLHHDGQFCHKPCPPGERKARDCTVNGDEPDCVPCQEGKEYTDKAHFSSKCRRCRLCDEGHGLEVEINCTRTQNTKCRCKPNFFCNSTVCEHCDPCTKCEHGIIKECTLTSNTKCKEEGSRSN

B1: soluble recombinant human TRAIL (Alexis): extracellular domain of human TRAIL (aa residues 95 to 281) fused at the N-terminus to a FLAG-tag and an 8 amino acid … (ligand, UniProt P50591 95-281, looked up)
chain: TSEETISTVQEKQQNISPLVRERGPQRVAAHITGTRGRSNTLSSPNSKNEKALGRKINSWESSRSGHSFLSNLHLRNGELVIHEKGFYYIYSQTYFRFQEEIKENTKNDKQMVQYIYKYTSYPDPILLMKSARNSCWSKDAEYGLYSIYQGGIFELKENDRIFVSVTNEHLIDMDHEASFFGAFLVG
notes: range 95-281; Bought reagent; also called TRAIL-FLAG; soluble TRAIL; not shown: FLAG tag; 8 amino acid linker peptide
B2: TRA-8 monoclonal anti-human DR5 antibody (mouse-mouse hybridoma TRA-8, ATCC PTA-1428) (antibody, mouse IgG1, kappa, V domains shown)
VH: EVMLVESGGGLVKPGGSLKLSCAASGFTFSSYVMSWVRQTPEKRLEWVATISSGGSYTYYPDSVKGRFTISRDNAKNTLYLQMSSLRSEDTAMYYCARRGDSMITTDYWGQGTTLTVSS
VL: DIVMTQSHKFMSTSVGDRVSITCKASQDVGTAVAWYQQKPGQSPKLLIYWASTRHTGVPDRFTGSGSGTDFTLTISNVQSEDLADYFCQQYSSYRTFGGGTKLEIKR
notes: also called anti-DR5 antibody (clone: TRA-8)

What was measured:
[1] = target: T5, DR4/hIgG1 (TRAIL-R1) fusion protein (human, UniProt O00220 24-239, limits assumed); assay: ELISA on plates coated with 2 µg/ml DR4-Ig, HRP anti-Flag detection
T5 construct: also called DR4-Ig

[2] = target: T5, DR4/hIgG1 (TRAIL-R1) fusion protein; assay: ELISA on plates coated with 2 µg/ml DR4-Ig (Fig. 1b, middle panel)
[3] = target: T6, murine DR5/hIgG1 fusion protein (murine; human, UniProt Q9QZM4 53-180, limits assumed); assay: ELISA, absorbance 450 nm/650 nm (Fig. 1a, column 8 of lower panel)
T6 construct: also called murine homologue of DR5

[4] = target: T1, soluble TNFRI (soluble form of human …); assay: Western blot, 0.5 µg of each protein
[5] = target: T2, TRAIL-R3 (DcR-1)/hIgG1 fusion protein; assay: Western blot, 0.5 µg of each protein
[6] = target: T3, TRAIL-R4 (DcR-2)/hIgG1 fusion protein; assay: Western blot, 0.5 µg of each protein
[7] = target: T4, CD95/hIgG1 (soluble form of human Fas); assay: Western blot, 0.5 µg of each protein
[8] = target: T7, human DR5, full length, on the cell surface (Cos-7 cells transfected with full-length human DR5 cDNA); human … (human, UniProt O14763 56-440); assay: radioisotope labeled TRA-8 on a breast cancer cell line in vitro
T7 construct: whole, on cells; also called cell surface DR5; human DR5 antigen

[9] = target: T8, human DR4, full length, on the cell surface (Cos-7 cells transfected with full-length DR4 cDNA); human cell … (human, UniProt O00220 24-468); assay: flow cytometry of transfected Cos-7 cells (Fig. 1c)
T8 construct: whole, on cells; also called cell surface DR4

[10] = target: T9, human DR5/hIgG1 fusion protein (immunogen); residues 1-180 of the extracellular portion of DR5 fused to the … (human, UniProt O14763 56-180); assay: ELISA on coated DR5-Ig, one-site binding model, non-linear regression
T9 construct: range 1-180; also called DR5-IgG; DR5-IgG1

Row | Binder | binding result [1] | binding result [2] | binding result [3] | binding result [4] | binding result [5] | binding result [6] | binding result [7] | Kd [8] [nM] | binding result [9] | Kd [10] [nM]
1 | B1 | binds | – | – | – | – | – | – | – | – | –
2 | B2 | – | no binding | no binding | no binding (tested: 1 µg/ml) | no binding (tested: 1 µg/ml) | no binding (tested: 1 µg/ml) | no binding (tested: 1 µg/ml) | 3 | no binding | 3
